Tests used:
[1] = target: T1, human MSLN-R2-his protein (human, UniProt Q13421 391-486); test: ELISA on coated antigen, antibody 2 nM
T1 construct: it is put last here; also called human MSLN-R2 protein; hMSLN-R2-his; not shown: His tag

[2] = target: T2, human MSLN-R3-his protein (human, UniProt Q13421 487-598); test: ELISA on coated antigen, antibody 2 nM
T2 construct: it is put last here; also called human MSLN-R3 protein; hMSLN-R3-his; not shown: His tag

[3] = target: T1, human MSLN-R2-his protein; test: ELISA on coated antigen, antibody 20 nM
Method: (§1) The plate was sealed with a plastic film and incubated at 4° C. overnight. The next day, the plate was washed twice with PBST, and a blocking buffer [PBS+2% (w/w) BSA] was added for blocking at room temperature for 2 h. The blocking buffer was discarded, and a chimeric antibody or negative control antibody serially diluted from 100 nM was added at 50 μL/well. After incubation at 37° C. for 2 h, the plate was washed 3 times with PBST. […] After incubation at 37° C. for 2 h, the plate was washed 5 times with PBST. A TMB substrate was added at 50 μL/well for incubation at room temperature for 5-10 min, and then a stop solution (1.0 N HCl) was added at 50 μL/well.

[4] = target: T2, human MSLN-R3-his protein; test: ELISA on coated antigen, antibody 20 nM
Method: as §1

[5] = target: T1, human MSLN-R2-his protein; test: ELISA on coated antigen, antibody 0.2 nM
Method: as §1

[6] = target: T1, human MSLN-R2-his protein; test: ELISA on coated antigen, antibody 200 nM
Method: as §1

[7] = target: T2, human MSLN-R3-his protein; test: ELISA on coated antigen, antibody 0.2 nM
Method: as §1

[8] = target: T2, human MSLN-R3-his protein; test: ELISA on coated antigen, antibody 200 nM
Method: as §1

[9] = target: T1, human MSLN-R2-his protein; test: ELISA on coated antigen, antibody 0.02 nM
Method: as §1

[10] = target: T2, human MSLN-R3-his protein; test: ELISA on coated antigen, antibody 0.02 nM
Method: as §1

[11] = target: T1, human MSLN-R2-his protein; test: ELISA on coated antigen, antibody 0.002 nM
Method: as §1

[12] = target: T2, human MSLN-R3-his protein; test: ELISA on coated antigen, antibody 0.002 nM
Method: as §1

[13] = target: T1, human MSLN-R2-his protein; test: ELISA on coated antigen, antibody 0.0002 nM
Method: as §1

[14] = target: T2, human MSLN-R3-his protein; test: ELISA on coated antigen, antibody 0.0002 nM
Method: as §1

[15] = target: T1, human MSLN-R2-his protein; test: ELISA on coated antigen, no antibody (blank, column 'none')
Method: as §1

[16] = target: T2, human MSLN-R3-his protein; test: as above
Method: as §1

T1 sequence (Q13421 other isoform, or with tags, fused parts or gaps): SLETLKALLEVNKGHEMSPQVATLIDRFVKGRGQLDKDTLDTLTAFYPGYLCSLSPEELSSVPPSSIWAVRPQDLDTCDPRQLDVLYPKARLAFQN
T2 sequence (Q13421 495-606): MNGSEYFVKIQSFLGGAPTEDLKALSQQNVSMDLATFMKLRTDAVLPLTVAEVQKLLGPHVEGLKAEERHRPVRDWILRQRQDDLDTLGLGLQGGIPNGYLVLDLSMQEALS

Row | Binder | OD450 [1] | OD450 [2] | OD450 [3] | OD450 [4] | OD450 [5] | OD450 [6] | OD450 [7] | OD450 [8] | OD450 [9] | OD450 [10] | OD450 [11] | OD450 [12] | OD450 [13] | OD450 [14] | OD450 [15] | OD450 [16]
1 | S009-F7.41.18 (antibody, human IgG1, kappa, V domains shown, Human-murine chimeric antibody, human IgG1 heavy and kappa light constant regions) VH: QVQLQQPGTELVKPGASVKLSCKASDYTFTSYWMHWVKQRPGQGLEWIGSINPSNGDTYYNEKFKNKATLTVDKSSSTAYMQLSSLTSDDSAVYYCARGWYFDVWGTGTTVTVSS VL: not shown | 0.11 OD | 2.43 OD | 0.12 OD | 2.46 OD | 0.07 OD | 0.15 OD | 1.92 OD | 3 OD | 0.07 OD | 0.69 OD | 0.07 OD | 0.12 OD | 0.07 OD | 0.07 OD | 0.08 OD | 0.06 OD
2 | S009-F7.23.19 (antibody, human IgG1, kappa, V domains shown, Human-murine chimeric antibody, human IgG1 heavy and kappa light constant regions) VH: EVKLVESGGGLVQPGGSLSLSCAASGFTFTDYYMSWVRQPPGKALEWLGFIRSKANAYTTEYSASVKGRFTISRDNSQSILYLQMNDLRAEDSATYYCARYYYYGSGYVWYFDVWGTGTTVTVSS VL: DIVMTQSQKFMSTSVGDRVSVTCKASQSVGTNVAWYQQKPGQFPKALIYSASYRYSGVPDRFTGSGSGTDFTLTIINVQSEDLAEYFCQQYNSYPLTFGAGTKLELKR | 0.05 OD | 2.52 OD | 0.05 OD | 2.63 OD | 0.05 OD | 0.09 OD | 1.9 OD | 2.77 OD | 0.05 OD | 0.88 OD | 0.05 OD | 0.25 OD | 0.14 OD | 0.08 OD | 0.06 OD | 0.09 OD
3 | S009-F7.25.19 (antibody, human IgG1, kappa, V domains shown, Human-murine chimeric antibody, human IgG1 heavy and kappa light constant regions) VH: QVQLQQPGTELVKPGASVKLSCKASGYTFTSYWMHWVKQRPGQGLEWIGNIIPSNGGTKYNEKFKSKATLTVDKSSSTAYMQLSSLTSEDSAVYYCSPHYYGGSPGFAYWGQGTLITVSA VL: DIVMTQSQKFMSTSVGDRVSVICKASQNVGTNVAWYQQKPGQSPKALIYSASYRYSGVPDRFTGSGSGTDFTLTISNVQSEDLAEYFCQQYNSYPLTFGGGTKLEIKR | 0.06 OD | 2.76 OD | 0.09 OD | 2.71 OD | 0.05 OD | 0.31 OD | 2.6 OD | 2.83 OD | 0.05 OD | 1.81 OD | 0.05 OD | 0.9 OD | 0.05 OD | 0.3 OD | 0.06 OD | 0.07 OD
4 | S009-F7.30.5 (antibody, human IgG1, kappa, V domains shown, Human-murine chimeric antibody, human IgG1 heavy and kappa light constant regions) VH: QVQLQQPKTELVKPGASVKLSCKASGYIFTTYWMHWVKQRPGQGLEWIGNVNPSNGGTMYNEKFERRATLTVDKSSSTADMQLSSLTSEDSAVYYCVPHYIGSRPGFAYWGQGTLVTVSG VL: DIVMTQSQKFMSTSVGDRVSVTCKASQNVGTNVAWYQHKPGQSPKALLYSASYRYSGVPDRFTGSGSGTDFTLTITNVQSEDLAEYFCQQYNSYPLTFGGGTKLEIKR | 0.06 OD | 2.75 OD | 0.15 OD | 2.84 OD | 0.06 OD | 0.5 OD | 2.66 OD | 2.71 OD | 0.05 OD | 1.7 OD | 0.05 OD | 0.74 OD | 0.05 OD | 0.25 OD | 0.06 OD | 0.09 OD
5 | S009-F7.33.24 (antibody, human IgG1, kappa, V domains shown, Human-murine chimeric antibody, human IgG1 heavy and kappa light constant regions) VH: QVQLQQPGTELVKPGASVKLSCKASGYTFTSYWMHWVKQRPGQGLEWIGNVNPSNGGSNYNEKFKNKATLTVDKSSSTADMQLNSLTSEDSAVYYCAPHYIGSRPGFAYWGQGTLVTVSG VL: DIVMTQSQKFMSTSVGDRVSVTCKASQNVGTNIAWYQQKPGQSPKALIYSASYRYSGVPDRFTGSGSGTDFTLTITNVQSEDLAEYFCQQYNSYPLTFGGGTKVEIKR | 0.06 OD | 2.85 OD | 0.04 OD | 2.67 OD | 0.06 OD | 0.08 OD | 2.7 OD | 2.84 OD | 0.06 OD | 2.13 OD | 0.06 OD | 1.04 OD | 0.06 OD | 0.23 OD | 0.07 OD | 0.08 OD
6 | S009-F7.48.1 (antibody, human IgG1, kappa, V domains shown, Human-murine chimeric antibody, human IgG1 heavy and kappa light constant regions) VH: QVQLQQPGTELVKPGASVKLSCKASGYTFTSYWMHWVKQRPGQGLEWIGNINPSNGGTNNNENFKSKATLTVDTSSSTAYMQLSSLTSEDSAVYYCVRNGYHGYWYFDVWGTGTTVTVSS VL: DIVMTQSQKFMSTSVGDRVSVTCKASQNVGTNVAWYQQQPGQSPKALIYSASYRYSGVPDRFTGSVSGTDFTLTISNVQSEDLAEYFCQQYNSYPLTFGGGTKLEIKR | 0.05 OD | 2.05 OD | 0.07 OD | 2.43 OD | 0.05 OD | 0.09 OD | 0.94 OD | 2.69 OD | 0.05 OD | 0.26 OD | 0.05 OD | 0.08 OD | 0.05 OD | 0.05 OD | 0.06 OD | 0.06 OD
7 | S009-F7.18.10 (antibody, human IgG1, kappa, V domains shown, Human-murine chimeric antibody, human IgG1 heavy and kappa light constant regions) VH: QVQLQQSGAELVRPGTSVKVSCKASGYAFTNYLIEWVKQRPGQGLEWIGVINPGSGGTKYNEKFKGKATLTADKSSSTAYMQLSSLTSEDSAVYFCASDYDYDPFAYWGQGTLVTVSA VL: DIVMTQSHKFMSTSVGDRVSITCKASQDVSTAVAWYQRKPGQSPKLLIYWASTRHTGVPDRFTGSGSGTDYTLTISYMQAEDLALYYCQQHYSTPYTFGGGTKLEIKR | 0.09 OD | 0.07 OD | 0.09 OD | 0.14 OD | 0.06 OD | 0.14 OD | 0.06 OD | 0.29 OD | 0.05 OD | 0.05 OD | 0.05 OD | 0.05 OD | 0.05 OD | 0.05 OD | 0.06 OD | 0.07 OD
8 | S009-F7.26.15 (antibody, human IgG1, kappa, V domains shown, Human-murine chimeric antibody, human IgG1 heavy and kappa light constant regions) VH: DVQLQESGPGLVKPSQTVFLTCTVTGISITTGNYRWSWIRQFPGNKLEWIGYIYYTGFITYNPSLTSRTTITRDTPKNQFFLEMKSLTAEDTATYYCARDDYDYDVFAYWGQGTLVTVSA VL: DIQMTQSPASLSASVGETVTITCRASGNIHNYLAWYHQKQGKSPQFLVYKAKTLADGVPSRFSGSGSGTQYSLKINRLQPEDFGSYYCQHFLSIPLTFGAGTKLELKR | 0.05 OD | 2.79 OD | 0.08 OD | 2.73 OD | 0.05 OD | 0.18 OD | 2.45 OD | 2.74 OD | 0.05 OD | 1.63 OD | 0.05 OD | 0.6 OD | 0.05 OD | 0.16 OD | 0.06 OD | 0.07 OD
9 | S009-F7.44.20 (antibody, human IgG1, kappa, V domains shown, Human-murine chimeric antibody, human IgG1 heavy and kappa light constant regions) VH: EVQLQQSGPELVKPGASVKIPCKASGYTFTDYNMDWVKQSHGKSLEWIGDINPSTGGTIYNQKFNGKATLTEDKSASTVYMEFRSLTSDDTAVYYCARRRIGTGYFDVWGTGTTVTVSS VL: QIVLTQSPALMSASPGEKVTLTCSASSSVISSYLSWYQQKPGSSPKLLIYRTSNLASGVPARFSGSGSGTSYSLTISSMEAEDAASYFCHQWSSFPYTFGGGTKLEIKR | 0.05 OD | 2.46 OD | 0.06 OD | 2.48 OD | 0.05 OD | 0.1 OD | 2.2 OD | 2.91 OD | 0.05 OD | 0.9 OD | 0.05 OD | 0.27 OD | 0.05 OD | 0.1 OD | 0.06 OD | 0.06 OD

Reference: patent US20250250357A1 (NANJING ZAIMING PHARMACEUTICAL, published 2025)
